Test results as given in paper PMC10873206.

Biological target: UBE2R1 E108A (human) (UniProt P49427)
Sequence (P49427 whole entry E108A): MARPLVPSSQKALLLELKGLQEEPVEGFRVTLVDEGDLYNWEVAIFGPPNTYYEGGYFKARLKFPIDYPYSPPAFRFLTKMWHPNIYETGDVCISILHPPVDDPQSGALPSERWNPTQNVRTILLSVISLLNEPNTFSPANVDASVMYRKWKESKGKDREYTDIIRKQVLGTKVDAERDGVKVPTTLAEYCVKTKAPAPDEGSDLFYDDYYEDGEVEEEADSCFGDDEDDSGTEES

Km of unanchored D77 acceptor ubiquitin for UBE2R1 in di-ubiquitin synthesis (K48R donor ubiquitin, neddylated CUL2–RBX1 WT); saturation not reached, top concentration given: > 800 µM
Substance: D77 acceptor ubiquitin R54D (from UniProt P0CG48 1-76) (natural protein)
